Laboratory results as given in doi:10.1101/2023.06.22.546067 (bioRxiv, 2023).

B1: phage P4 polarity suppression protein Psu, wild-type (Psu^wt), purified (natural protein)
chain: MESTALQQAFDTCQNNKAAWLQRKNELAAAEQEYLRLLSGEGRNVSRLDELRNIIEVRKWQVNQAAGRYIRSHEAVQHISIRDRLNDFMQQHGTALAAALAPELMGYSELTAIARNCAIQRATDALREALLSWLAKGEKINYSAQDSDILTTIGFRPDVASVDDSREKFTPAQNMIFSRKSAQLASRQSV
B2: Psu variant R43A (Psu^R43A), purified (natural protein)
chain: MESTALQQAFDTCQNNKAAWLQRKNELAAAEQEYLRLLSGEGANVSRLDELRNIIEVRKWQVNQAAGRYIRSHEAVQHISIRDRLNDFMQQHGTALAAALAPELMGYSELTAIARNCAIQRATDALREALLSWLAKGEKINYSAQDSDILTTIGFRPDVASVDDSREKFTPAQNMIFSRKSAQLASRQSV

Legend:
[1] = biological target: T1, transcription termination factor ρ variant P167L (ρ^P167L), purified (E. coli, UniProt P0AG30, P167L); experiment: stopped-flow/FRET
[2] = biological target: the molecule itself; experiment: cryo-EM structure
[3] = biological target: T1, transcription termination factor ρ …; experiment: SEC

| Binder | binding result [1] | stoichiometry N [2] | binding result [3] |
| --- | --- | --- | --- |
| B1 | binds | 2 | – |
| B2 | – | – | binds |
